We go through 2 compounds from patent publication US12616737B2, “Liquid formulations of amylin analogues” (Zealand Pharma A/S, priority 2022, dated 2026).

Numbered stars: 1 amine (or outer) side, 2 acyl side, 3 side chain; on linkers, the order of the positions; unused ones are H or OH. Bridge positions count the residues as written; N and C are the ends. Square brackets hold non-standard residues; d marks the D form. * marks the point of attachment. C20 diacid = O=C(O)CCCCCCCCCCCCCCCCCCC(=O)*; γGlu = O=C(O)[C@H](CCC(=O)[*:2])N[*:1]; Hyp = O=C(O)[C@@H]1C[C@@H](O)CN1; NMeI = CC[C@H](C)[C@H](NC)C(=O)O; Aad = N[C@@H](CCCC(=O)O)C(=O)O; Sar = CNCC(=O)O Bounds are passed on as bounds.

For data set [1] the following is noted: human trials; cited from earlier work.
A short description of data set [2]: Physical stability evaluation by ThT-stress test (ASSAY IIId), lag-time of fibril formation. The data set is classed as physicochemical. Conditions: for ThT lag time: 1 mg/ml CPD 1, 20 mM TRIS, 118 mM NaCl. How it is done:
Physical Stability Evaluation by ThT-Stress Test (ASSAY IIId)
A 1 mM ThT stock solution was prepared and 12 μL was mixed with 288 μL of CPD 1 formulation. Samples were loaded in a 96-well black fluorescence plate (clear bottom) in duplicate 2×150 μL. Data were collected in a Fluorescence Plate reader from Biotek Synergy™ H4 Hybrid Multi-Mode at fixed intervals of 10 min, each preceded by 300 s of auto mixing (agitation), over a period of up to 60 hours at 40° C. Physical stability, expressed as lag-time of fibril formation (in hours), was defined as the intersection between two linear regressions representing the initial stable phase and the growth phase.
Physical stability was evaluated in terms of fibril formation by ThT-stress test measured over 60 hours at 40° C. Initial peptide particle size (z-average) was also determined by DLS.

A short description of data set [3]: Dynamic light scattering (DLS) (ASSAY IIIc), peptide particle size. Format: physicochemical. The conditions noted are these: initial z-average by DLS, 1 mg/ml CPD 1, 20 mM TRIS, 118 mM NaCl. As for the experimental part:
Dynamic Light Scattering (DLS) (ASSAY IIIc)
Peptide particle size distribution was determined with dynamic light scattering analysis. The standard DLS experiment is conducted in a nunc 96 well plate with a sample volume of 165 μL and measured in a DynaPro Plate reader II instrument. Typically used parameters were temperature at 25° C., acquisition time 2 s, 50 acquisitions per sample, Detection: Hydrodynamic radius Rh, Correlation function cut off [μs]: […] and Peak radius cut off [nm]: 0.5-1000.

Data set [4] can be described thus: Solubility test: CPD 1 dissolved in alkaline MQW by stirring, visual control. The conditions noted are these: in MQW (alkaline, NaOH). Format: physicochemical. As for the experimental part:
To test solubility, CPD 1 was dissolved in alkaline MQW (pH adjusted with NaOH) by stirring.

The nature of a further data set: pI of the peptide. The data set is classed as physicochemical.
For a further data set, the target named is hAMYR1 (Homo sapiens, UniProt P30988). The conditions noted are these: as described in WO 2018/046719; cited from earlier work.
A further data set addresses hAMYR2 (Homo sapiens, UniProt P30988). The conditions noted are these: as described in WO 2018/046719; cited from earlier work.
For another data set, the target named is T1, hAMYR3 (Homo sapiens, UniProt P30988).
T1 sequence (P30988 25-474): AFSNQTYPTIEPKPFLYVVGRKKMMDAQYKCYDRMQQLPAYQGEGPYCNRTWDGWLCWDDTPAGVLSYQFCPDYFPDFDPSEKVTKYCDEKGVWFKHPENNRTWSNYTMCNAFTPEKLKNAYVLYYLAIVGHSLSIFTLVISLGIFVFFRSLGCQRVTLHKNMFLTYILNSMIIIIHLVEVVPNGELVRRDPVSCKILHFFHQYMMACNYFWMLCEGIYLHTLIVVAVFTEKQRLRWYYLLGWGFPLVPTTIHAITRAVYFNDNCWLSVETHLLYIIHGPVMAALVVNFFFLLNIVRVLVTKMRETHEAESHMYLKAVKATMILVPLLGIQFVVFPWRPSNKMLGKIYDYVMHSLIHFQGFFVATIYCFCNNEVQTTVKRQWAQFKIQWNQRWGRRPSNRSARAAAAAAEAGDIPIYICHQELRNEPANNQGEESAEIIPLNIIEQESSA
T1 sequence (O60896 24-148 partner): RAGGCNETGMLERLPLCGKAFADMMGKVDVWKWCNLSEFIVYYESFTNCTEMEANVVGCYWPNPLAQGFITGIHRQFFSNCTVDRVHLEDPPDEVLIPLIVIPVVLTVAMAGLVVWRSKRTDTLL
Conditions: as described in WO 2018/046719; cited from earlier work.

Sequence of hAMYR2 (O60895 43-175 partner, one chain of several): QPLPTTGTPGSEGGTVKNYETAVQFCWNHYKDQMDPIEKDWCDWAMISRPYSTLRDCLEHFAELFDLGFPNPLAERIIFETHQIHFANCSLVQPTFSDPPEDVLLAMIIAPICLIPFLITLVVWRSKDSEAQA
Sequence of hAMYR1 (O60894 27-148 partner, one chain of several): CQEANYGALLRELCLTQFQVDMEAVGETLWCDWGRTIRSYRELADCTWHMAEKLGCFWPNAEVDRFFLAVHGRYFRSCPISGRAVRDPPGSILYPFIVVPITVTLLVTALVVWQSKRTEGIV

As to `CC[C@H](C)[C@H](NC(=O)[C@@H]1CCCN1C(=O)CNC(=O)[C@H](Cc1ccccc1)NC(=O)[C@H](CC(N)=O)NC(=O)[C@H](CC(N)=O)NC(=O)[C@H](CO)NC(=O)[C@H](CO)NC(=O)[C@H](Cc1c[nH]cn1)NC(=O)[C@@H](NC(=O)[C@H](CC(C)C)NC(=O)[C@H](Cc1ccccc1)NC(=O)[C@H](CC(N)=O)NC(=O)[C@H](C)NC(=O)[C@H](CC(C)C)NC(=O)[C@H](CCCNC(=N)N)NC(=O)[C@H](CCC(N)=O)NC(=O)[C@@H](NC(=O)[C@H](C)NC(=O)[C@@H]1CSSC[C@H](NC(=O)[C@@H](N)CCCCN)C(=O)N[C@@H](CC(N)=O)C(=O)N[C@@H]([C@@H](C)O)C(=O)N[C@@H](C)C(=O)N[C@@H]([C@@H](C)O)C(=O)N1)[C@@H](C)O)C(C)C)C(=O)N[C@@H](CC(C)C)C(=O)N1CCC[C@H]1C(=O)N1CCC[C@H]1C(=O)N[C@H](C(=O)N[C@@H](CC(N)=O)C(=O)N[C@H](C(=O)NCC(=O)N[C@@H](CO)C(=O)N[C@@H](CC(N)=O)C(=O)N[C@H](C(=O)N[C@@H](Cc1ccc(O)cc1)C(N)=O)[C@@H](C)O)C(C)C)[C@@H](C)O` [pramlintide], in data set [1], the “effect on body weight” value is reported as “reduce body weight or reduce weight gain”.

On to “[19CD]-isoGlu-RD( )GTATK( )ATERLA-Aad-FLQRSSF-Gly(Me)-A-Ile(Me)-LSSTEVGSNT-Hyp-NH2 ({C20 diacid}-[γGlu]RDGTATKATERLA[Aad]FLQRSSF[Sar]A[NMeI]LSSTEVGSNT[Hyp]-NH2; lactam 3-8) [CPD 1]”, for which the “ThT lag time” value was >60 h in data set [2] (pH 5.8, ThT-stress test over 60 hours at 40° C.); >60 h in data set [2] (pH 6.0, over 60 hours at 40° C.); >60 h in data set [2] (pH 6.3, over 60 hours at 40° C.); >60 h in data set [2] (pH 6.6, over 60 hours at 40° C.); >60 h in data set [2] (pH 6.8, over 60 hours at 40° C.); >60 h in data set [2] (pH 7.0, over 60 hours at 40° C.). Also, in data set [2] (pH range 5.8-7.0, ThT-stress test and DLS (Table 3)), the “stability towards fibrillation and aggregation” value was “stable towards fibrillation and aggregation impacting peptide particle size”. The “Peptide particle size (nm)” value in data set [3] (pH 5.8) turned out to be 3.3 nm; in data set [3] (pH 6.0) it was 4.0 nm; in data set [3] (pH 6.3), 3.2 nm; in data set [3] (pH 6.6), 3.0 nm; in data set [3] (pH 6.8) it was 3.7 nm; in data set [3] (pH 7.0), 3.0 nm. Besides, the “Concentration at which CPD 1 could be dissolved to a clear solution” value in data set [4] is given as “up to 50 mg/ml”. The “pI of the peptide” value in the data set “pI of the peptide” is 4.36. Also, in the data set with hAMYR1, the “agonist activity at hAMYR1” value is on record as “agonist activity”. Moreover, the “agonist activity at hAMYR2” value with hAMYR2 is given as “agonist activity”. Also, the “agonist activity at hAMYR3” value with hAMYR3 was “agonist activity”.
